Results taken from patent US20240108716A1.

What was measured:
[1] = target: SARS-CoV-2 S peptide 1159 (C-GGG-…) (SARS-CoV-2); experiment: ELISA, control for CPMV1159 on immobilised peptide
[2] = target: SARS-CoV-2 S peptide 564 (C-GGG-…) (SARS-CoV-2); experiment: ELISA, control for CPMV564 on immobilised peptide
[3] = target: SARS-CoV-2 S peptide 826 (C-GGG-…) (SARS-CoV-2); experiment: ELISA, control for CPMV826 on immobilised peptide
[4] = target: SARS-CoV-2 S peptide 153 (C-GGG-…) (SARS-CoV-2); experiment: ELISA, control for CPMV153 on immobilised peptide
[5] = target: SARS-CoV-2 S peptide 460 (C-GGG-FRKSN) (SARS-CoV-2); experiment: ELISA, control for CPMV460 on immobilised peptide
[6] = target: SARS-CoV-2 S peptide 454 (C-GGG-…) (SARS-CoV-2); experiment: ELISA, control for CPMV454 on immobilised peptide
[7] = target: SARS-CoV-2 S peptide 636 (C-GGG-…) (SARS-CoV-2); experiment: ELISA, control for CPMV636 on immobilised peptide
[8] = target: SARS-CoV-2 S peptide 386 (C-GGG-…) (SARS-CoV-2); experiment: ELISA, control for CPMV386 on immobilised peptide
[9] = target: SARS-CoV-2 S peptide 106 (C-GGG-…) (SARS-CoV-2); experiment: ELISA, control for CPMV106 on immobilised peptide
[10] = target: SARS-CoV-2 S peptide 570 (C-GGG-…) (SARS-CoV-2); experiment: ELISA, control for CPMV570 on immobilised peptide
[11] = target: SARS-CoV-2 S peptide 469 (C-GGG-…) (SARS-CoV-2); experiment: ELISA, control for CPMV469 on immobilised peptide
[12] = target: SARS-CoV-2 S peptide 420 (C-GGG-…) (SARS-CoV-2); experiment: ELISA, control for CPMV420 on immobilised peptide
[13] = target: SARS-CoV-2 S peptide 820 (C-GGG-…) (SARS-CoV-2); experiment: ELISA, control for CPMV820 on immobilised peptide

Control plasma of the peptide ELISA of the CPMV-based COVID-19 vaccines (antibody)
endpoint IgG titer (reciprocal dilution) [1]: 400
endpoint IgG titer (reciprocal dilution) [2]: 1600
endpoint IgG titer (reciprocal dilution) [3]: 1600
endpoint IgG titer (reciprocal dilution) [4]: 2130
endpoint IgG titer (reciprocal dilution) [5]: 1470
endpoint IgG titer (reciprocal dilution) [6]: 100
endpoint IgG titer (reciprocal dilution) [7]: 100
endpoint IgG titer (reciprocal dilution) [8]: 266
endpoint IgG titer (reciprocal dilution) [9]: 400
endpoint IgG titer (reciprocal dilution) [10]: 1600
endpoint IgG titer (reciprocal dilution) [11]: 1870
endpoint IgG titer (reciprocal dilution) [12]: 400
endpoint IgG titer (reciprocal dilution) [13]: 800
